Test results taken from patent publication US20250326823A1.

Legend:
Assay in all cases: cell-based or functional assay
[1] = target: SARS-CoV-2 spike (S) protein, variant JN.1.13.1 (SARS-CoV-2)
[2] = target: SARS-CoV-2 spike (S) protein, variant KP.2 (SARS-CoV-2)
[3] = target: SARS-CoV-2 spike (S) protein, variant KP.2.3 (SARS-CoV-2)
[4] = target: SARS-CoV-2 spike (S) protein, variant LB.1 (SARS-CoV-2)
[5] = target: SARS-CoV-2 spike (S) protein, D614G (SARS-CoV-2) (UniProt P0DTC2)
[6] = target: SARS-CoV-2 spike (S) protein, variant BA.2.86 (SARS-CoV-2)
[7] = target: SARS-CoV-2 spike (S) protein, variant CH.1.1 (SARS-CoV-2)
[8] = target: SARS-CoV-2 spike (S) protein, variant EG.5.1 (SARS-CoV-2)
[9] = target: SARS-CoV-2 spike (S) protein, variant JN.1 (SARS-CoV-2)
[10] = target: SARS-CoV-2 spike (S) protein, variant KP.2 (SARS-CoV-2); remark: listed apart in the source
[11] = target: SARS-CoV-2 spike (S) protein, variant KP.2.3 (SARS-CoV-2); remark: listed apart in the source
[12] = target: SARS-CoV-2 spike (S) protein, variant KP.3 (SARS-CoV-2)
[13] = target: SARS-CoV-2 spike (S) protein, variant KP.3.1.1 (SARS-CoV-2)
[14] = target: SARS-CoV-2 spike (S) protein, variant LB.1 (SARS-CoV-2); remark: listed apart in the source
[15] = target: SARS-CoV-2 spike (S) protein, variant XEC (SARS-CoV-2)
[16] = target: SARS-CoV-2 D614G spike (S) protein (SARS-CoV-2) (UniProt P0DTC2)
[17] = target: SARS-CoV-2 spike (S) protein, variant BA.1 (SARS-CoV-2) (UniProt P0DTC2)
[18] = target: SARS-CoV-2 spike (S) protein, variant BA.4/5 (SARS-CoV-2) (UniProt P0DTC2)
[19] = target: SARS-CoV-2 spike (S) protein, variant BQ.1.1 (SARS-CoV-2) (UniProt P0DTC2)
[20] = target: SARS-CoV-2 spike (S) protein, variant FL.1.5.1 (SARS-CoV-2)
[21] = target: SARS-CoV-2 spike (S) protein, variant HK.3 (SARS-CoV-2)
[22] = target: SARS-CoV-2 spike (S) protein, variant HV.1 (SARS-CoV-2)
[23] = target: SARS-CoV-2 spike (S) protein, variant JF.1 (SARS-CoV-2)
[24] = target: SARS-CoV-2 spike (S) protein, variant XBB.1 (SARS-CoV-2) (UniProt P0DTC2)
[25] = target: SARS-CoV-2 spike (S) protein, variant XBB.1.16 (SARS-CoV-2) (UniProt P0DTC2)
[26] = target: SARS-CoV-2 spike (S) protein, variant XBB.1.5 (SARS-CoV-2) (UniProt P0DTC2)
[27] = target: SARS-CoV-2 spike (S) protein, variant XBC.1 (SARS-CoV-2) (UniProt P0DTC2)

Work on ADG20 (antibody) yielded a pseudovirus neutralization IC50 [1] of over 67 nM, a pseudovirus neutralization IC80 [1] of over 67 nM and a pseudovirus neutralization IC50 [2] of over 67 nM. It also gave a pseudovirus neutralization IC80 [2] of over 67 nM, a pseudovirus neutralization IC50 [3] of over 67 nM and a pseudovirus neutralization IC80 [3] of over 67 nM. It also gave a pseudovirus neutralization IC50 [4] of over 67 nM, a pseudovirus neutralization IC80 [4] of over 67 nM and a neutralization IC50 [5] of 0.003 µg/mL. The neutralization IC50 [6] was over 10 µg/mL, the neutralization IC50 [7] was 2.06 µg/mL and the neutralization IC50 [8] was over 10 µg/mL. For the same substance, the neutralization IC50 [9] was over 10 µg/mL, the neutralization IC50 [10] was over 10 µg/mL and the neutralization IC50 [11] was over 10 µg/mL. For the same substance, the neutralization IC50 [12] was over 10 µg/mL, the neutralization IC50 [13] was over 10 µg/mL and the neutralization IC50 [14] was over 10 µg/mL. The neutralization IC50 [15] was over 10 µg/mL.

In the case of AZD3152 (antibody), the pseudovirus neutralization IC50 [16] is reported as 0.015 µg/mL, the pseudotyped neutralization potency IC50 [17] is reported as 0.123 nM and the pseudotyped neutralization potency IC80 [17] is reported as 0.313 nM. The pseudotyped neutralization potency IC50 [18] was 0.102 nM, the pseudotyped neutralization potency IC80 [18] was 0.266 nM and the pseudotyped neutralization potency IC50 [19] was 0.392 nM. For the same substance, the pseudotyped neutralization potency IC80 [19] was 0.944 nM, the IC50, pseudovirus neutralization [20] was over 67 nM and the IC80, pseudovirus neutralization [20] was over 67 nM. It also gave an IC50, pseudovirus neutralization [21] of over 67 nM, an IC80, pseudovirus neutralization [21] of over 67 nM and an IC50, pseudovirus neutralization [22] of over 67 nM. The IC80, pseudovirus neutralization [22] was over 67 nM, the IC50, pseudovirus neutralization [23] was over 67 nM and the IC80, pseudovirus neutralization [23] was over 67 nM. The pseudotyped neutralization potency IC50 [24] was 0.096 nM, the pseudotyped neutralization potency IC80 [24] was 0.302 nM and the pseudotyped neutralization potency IC50 [25] was 0.092 nM. The pseudotyped neutralization potency IC80 [25] was 0.381 nM, the pseudotyped neutralization potency IC50 [26] was 0.12 nM and the pseudotyped neutralization potency IC80 [26] was 0.308 nM. For the same substance, the pseudotyped neutralization potency IC50 [27] was 0.0322 nM, the pseudotyped neutralization potency IC80 [27] was 0.209 nM and the neutralization IC50 [5] was 0.015 µg/mL. The neutralization IC50 [6] was 0.053 µg/mL, the neutralization IC50 [7] was 0.045 µg/mL and the neutralization IC50 [8] was over 10 µg/mL. It also gave a neutralization IC50 [9] of 0.766 µg/mL, a neutralization IC50 [10] of over 10 µg/mL and a neutralization IC50 [11] of over 10 µg/mL. It also gave a neutralization IC50 [12] of over 10 µg/mL, a neutralization IC50 [13] of over 10 µg/mL and a neutralization IC50 [14] of over 10 µg/mL. For the same substance, the neutralization IC50 [15] was over 10 µg/mL.
